Results from article PMC8636563.

Assays:
[1] = molecular target: Δ4C-Nse2 (ΔSIM2) (budding yeast (Saccharomyces cerevisiae)) (UniProt P38632)
[2] = molecular target: Nse2 1-267 (budding yeast (Saccharomyces cerevisiae)) (UniProt P38632)
[3] = molecular target: Ubc9 A129K/K153R (yeast (Saccharomyces cerevisiae)) (UniProt P50623)
[4] = molecular target: Nse2 ΔLoop1-SIM1 (budding yeast (Saccharomyces cerevisiae)) (UniProt P38632)

Kcat/KM of single-turnover SUMO conjugation on cp53 (0.5 to 8 µM) by Δ4C-Nse2 (ΔSIM2)/Arm-Smc5 with extra non-conjugatable Smt3, 2 °C [1]	Kcat/KM of single-turnover SUMO conjugation on cp53 (0.5 to 8 µM) by WT Nse2/Arm-Smc5 with extra non-conjugatable Smt3, 2 °C [2]	Kcat of single-turnover discharge of purified Ubc9 K153R~Smt3 K11C/D68R-Alexa488 thioester on cp53 by Nse2/Arm-Smc5, with against without 1.5-fold excess of non-conjugatable SUMOB, 30 °C [3] [fold]	multiple-turnover SUMO conjugation on cNse4 by Nse2 ΔLoop1-SIM1/Arm-Smc5 against WT-Nse2, 30 °C [4] [% reduction]	Substance
0.007	0.025	3		ΔN18 Smt3 (from UniProt Q12306 19-101) (domain or fragment)
			< 90	FL Smt3 (from UniProt Q12306 1-101) (natural protein)
